In patent US20180049457A1, “ENZYMATIC SYNTHESIS OF SOLUBLE GLUCAN FIBER” (E I DU PONT DE NEMOURS AND COMPANY, priority 2014, published 2018):

B1: GTF4491T5: T5 C-terminal truncation of GTF4491, SEQ ID NO: 122, strain SG1321 (protein)
chain: INGKQYYVNSDGSVRKNFVFEQDGKSYYFDAETGALATKSQDEFSTEPIKATVDFSSGNQLYKNDDKSLDQLDTFITADAWYRPKSILKDGKTWTASTEADKRPLLMVWWPDKSTQVNYLNYMQNQGLGAGSFSTNSSQESLDQAAKAVQTKIEERIAREGNTNWLRTSIDQFIKTQPGWNSSTENSSYDHLQGGQLLFNNSKGDTGNRTSHANSDYRLLNRTPTNQTGTRKYFKDNSIGGLEFLLANDIDNSNPAVQAEQLNWLHFMMNIGSIMANDPTANFDGLRVDALDNVDADLLQIASDYFKAAYGVDKSEANAIKHLSYLEAWSANDPYYNKDTKGAQLPIDNALRNALTNLLMRDKNTRMQLGDMTAFINSSLNPRGANDKNGERMANYIFTRAHDTEAQTIIQRIIRDRINPNLFGYNFTRDEIKKAFEIYNEDIDKAHKTYASYNLPSVYALMLTNKDSVTRVYYGDLYREDGHYMAKKTPYFDAIDTLLRARIKYVAGGQDMEVKKVGNDGLLTSVRYGKGANNRTDLGTSETRTQGMGVIMTNNYDFRLGSNETVTMNMGRAHRNQLYRPLLLTTKDGIATYLNDSDVPKNLLKRTDWNGNLTFNANDVFGVENVQVSGYLGVWVPYGAKANQDARTQPSNRANSDGQVYKSSAALDSQVMYEAFSNFQAFADDQPELYMNRVLAKNTDLLKAWGITSVGLPPQYVSSKDGTFLDSIIDNGYAFDDRYDMALSQNNKYGSLEDLLNVLRALHKDGIQAIADWVPDQIYNLPGKEVVNATRVNGYGYHQQGYQIVDQAYVANTRTDGTDYQGKYGGAFLDELKAKYPSIFNRVQISNGKQLPTNEKITKWSAKYFNGTNILGRGINFVLRDDKTNQYFNTSANSQLLPTPLRDTGAITSTQVFQRRGQDVYFLRDNQTVKNEFVQDGNGNWYYFGGDGKMTKGAQNINSKDYYFFDNGVQLRNALRRASNGYTYYYGLDGAMVKNAFVDFDDKHKQ
modifications: T5 C-terminal truncation of GTF4491
B2: GTF4336NT: N terminal-only truncated GTF4336 from Streptococcus salivarius SK126, SEQ ID NO: 104, strain SG1291 (protein)
chain: INGKQYYVNSDGSVRKNFVFEQDGKSYYFDAETGALATKSQDEFSTEPIKATVDFSSGNQLYKNDDKSLDQLDTFITADAWYRPKSILKDGKTWTASTEADKRPLLMVWWPDKSTQVNYLNYMQNQGLGAGSFSTNSSQESLDQAAKAVQTKIEERIAREGNTNWLRTSIDQFIKTQPGWNSSTENSSYDHLQGGQLLFNNSKGDTGNRTSHANSDYRLLNRTPTNQTGTRKYFKDNSIGGLEFLLANDIDNSNPAVQAEQLNWLHFMMNIGSIMANDPTANFDGLRVDALDNVDADLLQIASDYFKAAYGVDKSEANAIKHLSYLEAWSANDPYYNKDTKGAQLPIDNALRNALTNLLMRDKNTRMQLGDMTAFINSSLNPRGANDKNGERMANYIFTRAHDTEAQTIIQRIIRDRINPNLFGYNFTRDEIKKAFEIYNEDIDKAHKTYASYNLPSVYALMLTNKDSVTRVYYGDLYREDGHYMAKKTPYFDAIDTLLRARIKYVAGGQDMEVKKVGNDGLLTSVRYGKGANNRTDLGTSETRTQGMGVIMTNNYDFRLGSNETVTMNMGRAHRNQLYRPLLLTTKDGIATYFNDSDVPKNLLKRTDWNGNLTFNANDVFGVENVQVSGYLGVWVPVGAKANQDARTQPSNRANSDGQVYKSSAALDSQVMYEAFSNFQAFADDQPELYMNRVLAKNTDLLKAWGVTSVGLPPQYVSSKDGTFLDSTIDNGYAFDDRYDMALSQNNKYGSLEDLLNVLRALHKDGIQAIADWVPDQIYNLPGKEVVNATRVNGYGYHQQGYQIVDQAYVANTRTDGTDYQGKYGGAFLDELKAKYPSIFNRVQISNGKQLPTNEKITKWSAKYFNGTNILGRGINYVLRDDKTNQYFNTSANSQLLPTPLRDTGAITSTQVFQRRGQDVYFLRDNQAVKNEFVQDGNGNWYYFGADGKMTKGAQTINKKDYYFFDNGIQLRNALRRANNGYTYYYGLDGAMVKNAFVDFDDKRKQVRAFTTQGTMVVGNLHWSGHHFYFDRETGIQAKDRIVRTDDGKLHYYVAGTGDMGRNVFATDSSTGKRYYFDADGNTVTGSRVIDGKTYYFNQDGSVGTAYSNRADSIIFENGKARYITPAGEIGRSIFVYNPATKAWNYFDKEGNRVTGRQYIDGHLYYFKEDGSQAKGEIIEENGIKYYYEPESGILASGRYLQVGDDQWMYFKQDGSLAIGQVRADHGYLKYFDKNGIQVKGKTIVEDGKTYYYDAHSGALVTSSFAEIAPNQWSYFNTDGQALKGKWTINGKEYYFDQNGIQYKGKAVKVGSRYKYYDENDGQPVTNRFAQIEPNVWAYFGADGYAVTGEQVINGQHLYFDQSGRQVKGAYVTVNGQRRYYDANTGEYVPGR
modifications: Streptococcus salivarius SK126
B3: GTF4491NT: N terminal-only truncated GTF4491 from Streptococcus salivarius JIM8777, SEQ ID NO: 106, strain SG1292 (protein)
chain: INGKQYYVNSDGSVRKNFVFEQDGKSYYFDAETGALATKSQDEFSTEPIKATVDFSSGNQLYKNDDKSLDQLDTFITADAWYRPKSILKDGKTWTASTEADKRPLLMVWWPDKSTQVNYLNYMQNQGLGAGSFSTNSSQESLDQAAKAVQTKIEERIAREGNTNWLRTSIDQFIKTQPGWNSSTENSSYDHLQGGQLLFNNSKGDTGNRTSHANSDYRLLNRTPTNQTGTRKYFKDNSIGGLEFLLANDIDNSNPAVQAEQLNWLHFMMNIGSIMANDPTANFDGLRVDALDNVDADLLQIASDYFKAAYGVDKSEANAIKHLSYLEAWSANDPYYNKDTKGAQLPIDNALRNALTNLLMRDKNTRMQLGDMTAFINSSLNPRGANDKNGERMANYIFTRAHDTEAQTIIQRIIRDRINPNLFGYNFTRDEIKKAFEIYNEDIDKAHKTYASYNLPSVYALMLTNKDSVTRVYYGDLYREDGHYMAKKTPYFDAIDTLLRARIKYVAGGQDMEVKKVGNDGLLTSVRYGKGANNRTDLGTSETRTQGMGVIMTNNYDFRLGSNETVTMNMGRAHRNQLYRPLLLTTKDGIATYLNDSDVPKNLLKRTDWNGNLTFNANDVFGVENVQVSGYLGVWVPYGAKANQDARTQPSNRANSDGQVYKSSAALDSQVMYEAFSNFQAFADDQPELYMNRVLAKNTDLLKAWGITSVGLPPQYVSSKDGTFLDSIIDNGYAFDDRYDMALSQNNKYGSLEDLLNVLRALHKDGIQAIADWVPDQIYNLPGKEVVNATRVNGYGYHQQGYQIVDQAYVANTRTDGTDYQGKYGGAFLDELKAKYPSIFNRVQISNGKQLPTNEKITKWSAKYFNGTNILGRGINFVLRDDKTNQYFNTSANSQLLPTPLRDTGAITSTQVFQRRGQDVYFLRDNQTVKNEFVQDGNGNWYYFGGDGKMTKGAQNINSKDYYFFDNGVQLRNALRRASNGYTYYYGLDGAMVKNAFVDFDDKHKQVRAFTTQGTMVVGNLHWSGHHFYFDRETGIQAKDRVVRTDDGKLHYYVAETGDMGRNVFATDSSTGKRYYFDADGNTVTGSRVIDGKTYYFNQDGSVGTAYSNRADSIIFENGKARYITPAGEIGRSIFVYNPATKAWNYFDKEGNRVTGRQYIDGHLYYFKEDGSQAKGEIIEENGIKYYYEPESGILASGRYLQVGDDQWMYFKQDGSLAIGQVRADHGYLKYFDKNGIQVKGKTVVEDGKTYYYDAHSGALVTSSFAEIAPNQWSYFNTDGQALKGKWTINGKEYYFDENGIQYKGKAIKVGSRYKYYDENDGQPVTNRFAQIEPNVWAYFGADCYAVTGEQVINGQHLYFDENGRQVKGAYVTVNGQRRYYDANTGEYVPGR
modifications: Streptococcus salivarius JIM8777
B4: GTF4491T4: T4 C-terminal truncation of GTF4491, SEQ ID NO: 132, strain SG1320 (protein)
chain: INGKQYYVNSDGSVRKNFVFEQDGKSYYFDAETGALATKSQDEFSTEPIKATVDFSSGNQLYKNDDKSLDQLDTFITADAWYRPKSILKDGKTWTASTEADKRPLLMVWWPDKSTQVNYLNYMQNQGLGAGSFSTNSSQESLDQAAKAVQTKIEERIAREGNTNWLRTSIDQFIKTQPGWNSSTENSSYDHLQGGQLLFNNSKGDTGNRTSHANSDYRLLNRTPTNQTGTRKYFKDNSIGGLEFLLANDIDNSNPAVQAEQLNWLHFMMNIGSIMANDPTANFDGLRVDALDNVDADLLQIASDYFKAAYGVDKSEANAIKHLSYLEAWSANDPYYNKDTKGAQLPIDNALRNALTNLLMRDKNTRMQLGDMTAFINSSLNPRGANDKNGERMANYIFTRAHDTEAQTIIQRIIRDRINPNLFGYNFTRDEIKKAFEIYNEDIDKAHKTYASYNLPSVYALMLTNKDSVTRVYYGDLYREDGHYMAKKTPYFDAIDTLLRARIKYVAGGQDMEVKKVGNDGLLTSVRYGKGANNRTDLGTSETRTQGMGVIMTNNYDFRLGSNETVTMNMGRAHRNQLYRPLLLTTKDGIATYLNDSDVPKNLLKRTDWNGNLTFNANDVFGVENVQVSGYLGVWVPYGAKANQDARTQPSNRANSDGQVYKSSAALDSQVMYEAFSNFQAFADDQPELYMNRVLAKNTDLLKAWGITSVGLPPQYVSSKDGTFLDSIIDNGYAFDDRYDMALSQNNKYGSLEDLLNVLRALHKDGIQAIADWVPDQIYNLPGKEVVNATRVNGYGYHQQGYQIVDQAYVANTRTDGTDYQGKYGGAFLDELKAKYPSIFNRVQISNGKQLPTNEKITKWSAKYFNGTNILGRGINFVLRDDKTNQYFNTSANSQLLPTPLRDTGAITSTQVFQRRGQDVYFLRDNQTVKNEFVQDGNGNWYYFGGDGKMTKGAQNINSKDYYFFDNGVQLRNALRRASNGYTYYYGLDGAMVKNAFVDFDDKHK
modifications: T4 C-terminal truncation of GTF4491

Experiment: GTF activity of strains (PAHBAH assay)
Format: biochemical
Conditions: enzyme expressed in B. subtilis host
Method: GTF activity of the strains was analyzed by PAHBAH assay in three separate experiments. Due to minor variations between the expeirments, Table 2 lists the activity of the truncated enzymes in the B. subtilis host along with the experiment in which the activity was measured. Most of the T1, T2, and T6 truncations decreased the activity of the enzymes, whereas the T4 and T5 C-terminal truncations retained similar activity relative to the respective N terminal-only truncations (NT). […] To identify specific amino acid residues within the catalytic domain that may be involved in producing the soluble α-glucan fiber, we analyzed the crystal structures (PDB Identifiers: 3AIB, 3AIC, and 3HZ3) of the catalytic domains of three glucosyltransferases to identify residues within 8 Angstroms of the bound ligand. 57 residues met that criterion. A motif was generated based on the corresponding 57 amino acids in GTF0459 and each of the identified homologs. The motif was then used to generate a consensus sequence to capture the variability in the catalytic domains of GTF0459 and the identified homologs. The consensus sequence is provided as SEQ ID NO: 153.

Molecule | GTF activity of strains: Acitivity (Experiment Number 2) | GTF activity of strains: Acitivity (Experiment Number 1)
B1 | 50.6 U/mL | 
B2 | 48.6 U/mL | 34.5 U/mL
B3 | 53.1 U/mL | 42.3 U/mL
B4 | 45.3 U/mL | 
